Values of other authors in article PMC4152934.
pKd: −log10 of the molar value.

Key:
AdipoR2 (Mus musculus) = AdipoR2 (Mus musculus) (UniProt Q8BQS5)
AdipoR1 (Mus musculus) = AdipoR1 (Mus musculus) (UniProt Q91VH1)
Sequence of UniProt Q91VH1 (Q91VH1 whole entry): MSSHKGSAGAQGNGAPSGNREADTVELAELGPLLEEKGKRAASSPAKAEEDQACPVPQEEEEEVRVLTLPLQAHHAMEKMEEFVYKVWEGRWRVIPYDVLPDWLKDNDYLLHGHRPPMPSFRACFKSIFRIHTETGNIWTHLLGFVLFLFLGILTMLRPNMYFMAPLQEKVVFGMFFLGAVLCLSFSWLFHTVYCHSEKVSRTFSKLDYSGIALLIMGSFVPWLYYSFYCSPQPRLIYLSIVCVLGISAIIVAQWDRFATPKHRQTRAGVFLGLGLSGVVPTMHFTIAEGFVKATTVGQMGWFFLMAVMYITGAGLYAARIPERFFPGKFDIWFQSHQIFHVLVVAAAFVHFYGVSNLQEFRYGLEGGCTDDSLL

Sequence of UniProt Q8BQS5 (Q8BQS5 whole entry): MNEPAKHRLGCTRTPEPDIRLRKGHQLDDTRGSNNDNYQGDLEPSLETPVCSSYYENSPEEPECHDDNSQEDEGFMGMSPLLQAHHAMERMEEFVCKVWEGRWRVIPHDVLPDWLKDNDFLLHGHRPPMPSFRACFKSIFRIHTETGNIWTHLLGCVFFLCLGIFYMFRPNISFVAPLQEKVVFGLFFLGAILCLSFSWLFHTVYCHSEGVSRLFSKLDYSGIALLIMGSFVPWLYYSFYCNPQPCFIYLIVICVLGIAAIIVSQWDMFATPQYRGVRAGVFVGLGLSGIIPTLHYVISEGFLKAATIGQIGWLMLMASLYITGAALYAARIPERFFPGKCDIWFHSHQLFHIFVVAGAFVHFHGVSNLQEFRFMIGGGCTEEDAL

## globular adiponectin trimer globular domain (from UniProt Q60994)
AdipoR2 (Mus musculus)
  pKd: 7.84
AdipoR1 (Mus musculus)
  pKd: 8.94
